{"source": "paper PMC9887155", "about": "(2023)", "binders": {"B1": {"name": "peptide LWO2 (second cytoplasmic loop of long-wavelength-sensitive opsin of European robin) (peptide)", "peptide": "CGAGAWERWFVVCKPFGNIKFDGK-NH2", "modifications": "cysteine pairing not given here"}}, "key": {"[1]": {"target": "T1, Gtα/Giα with a C-terminus truncated by six amino acids (European robin (Erithacus rubecula))", "assay": "SPR; two-state reaction model, first step (kd1/ka1)"}, "[2]": {"target": "T1, Gtα/Giα with a C-terminus truncated by …", "assay": "SPR; two-state reaction model, kd1"}}, "note": "Ends that are not written are not given here."}
{"binder": "B1", "values": [{"measurement": "Kd", "setting": "[1]", "result": 933, "unit": "nM"}, {"measurement": "koff", "setting": "[2]", "result": 0.00434, "unit": "s⁻¹"}]}
